Data reported in US20070154481A1 (UCB, published 2007).
Changes are numbered by the printed parent chain. “And” between values parts separate entries of the source, which are not always exact repeats. Identical values can stand only once.

How the values were obtained:
Recombinant human IL-6 [1] = target: T1, Recombinant human IL-6 (human, UniProt P05231 29-212); assay: BIAcore 3000; mean of the two determinations of Table 1.1
T1 construct: Bought protein; also called human recombinant IL-6; hIL-6
Description: (§1) BIA (Biamolecular Interaction Analysis) was performed using a BIAcore 3000 (BIAcore AB). Affinipure F(ab′)₂ Fragment goat anti-human IgG, Fc fragment specific (Jackson ImmunoResearch) was immobilised on a CM5 Sensor Chip via amine coupling chemistry to a capture level of ≈5000 response units (RUs). HBS-EP buffer (10 mM HEPES pH 7.4, 0.15 M NaCl, 3 mM EDTA, 0.005% Surfactant P20, BIAcore AB) was used as the running buffer with a flow rate of 10 μl/min. A 10 μl injection of CA030₋240.g1 at 4 μg/mL was used for capture by the immobilised anti-human IgG-Fc. Human IL-6 was titrated over the captured CAO30₋240.g1 at various concentrations at a flow rate of 30 μL/min. The surface was regenerated by a 10 μL injection of 40 mM HCl, followed by a 5 μL injection of 5 mM NaOH at a flowrate of 10 μL/min.
(§2) Background subtraction binding curves were analysed using the BIAevaluation software (version 3.2) following standard procedures. Kinetic parameters were determined from the fitting algorithm.
One batch of CA030₋240.g1 was used in this study.

Recombinant human IL-6 [2] = target: T1, Recombinant human IL-6; assay: BIAcore 3000; IgG4 captured by anti-human Fc F(ab')2, human IL-6 as analyte
Description: as §1, §2

[3] = target: T2, Recombinant cynomologous monkey IL-6 (cynomolgus monkey, UniProt P79341 28-212, limits assumed); assay: cell-based or functional assay
T2 sequence (looked up): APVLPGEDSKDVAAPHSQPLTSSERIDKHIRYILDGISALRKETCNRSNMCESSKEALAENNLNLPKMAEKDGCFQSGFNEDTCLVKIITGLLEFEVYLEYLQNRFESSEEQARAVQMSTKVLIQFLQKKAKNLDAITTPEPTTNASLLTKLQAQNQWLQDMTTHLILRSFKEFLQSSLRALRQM

Recombinant human IL-6 [4] = target: T1, Recombinant human IL-6; assay: cell-based or functional assay
[5] = target: Human mammalian-derived IL-6 (human, UniProt P05231 30-212); assay: cell-based or functional assay
[6] = target: T3, Recombinant Rhesus monkey IL-6 (rhesus monkey, UniProt P51494 28-212, limits assumed); assay: cell-based or functional assay
T3 sequence (looked up): T2 sequence (looked up) with D11N, S178N

- Kd (Recombinant human IL-6 [1]): 9.76 pM
- Kd (Recombinant human IL-6 [2]): 10.5 pM and 9.02 pM
- koff (Recombinant human IL-6 [2]): 7.68e-06 s⁻¹
- kon (Recombinant human IL-6 [2]): 731000 M⁻¹ s⁻¹ and 852000 M⁻¹ s⁻¹
- ND50, inhibition of IL-6 induced proliferation of T1165 cells [3]: 5.4 ng/ml and 35.6 pM
- ND50, inhibition of IL-6 induced proliferation of T1165 cells (Recombinant human IL-6 [4]): 1.1 ng/ml and 7.26 pM
- ND50, inhibition of IL-6 induced proliferation of T1165 cells [5]: 3.6 ng/ml and 23.8 pM
- ND50, inhibition of IL-6 induced proliferation of T1165 cells [6]: 2.2 ng/ml and 14.5 pM
B1: CA030-00240.g1 whole IgG4 (antibody, V domains shown)
VH: EVQLVESGGGLVQPGGSLRLSCAASGFNFNDYFMNWVRQAPGKGLEWVAQMRNKNYQYGTYYAESLEGRFTISRDDSKNSLYLQMNSLKTEDTAVYYCARESYYGFTSYWGQGTLVTVSS
VL: DIQMTQSPSSLSASVGDRVTITCQASQDIGISLSWYQQKPGKAPKLLIYNANNLADGVPSRFSGSGSGTDFTLTISSLQPEDFATYYCLQHNSAPYTFGQGTKLEIKR
notes: Made in CHO cells; also called CA030-240.g1; CA030_240.g1
